Assay [1] deals with T1, Recombinant cynomolgus macaque LAG-3 ECD-His6 (cynomolgus macaque, UniProt P18627 24-433 (human entry)).
T1 construct: In-house generated; also called cyno LAG-3
T1 chain: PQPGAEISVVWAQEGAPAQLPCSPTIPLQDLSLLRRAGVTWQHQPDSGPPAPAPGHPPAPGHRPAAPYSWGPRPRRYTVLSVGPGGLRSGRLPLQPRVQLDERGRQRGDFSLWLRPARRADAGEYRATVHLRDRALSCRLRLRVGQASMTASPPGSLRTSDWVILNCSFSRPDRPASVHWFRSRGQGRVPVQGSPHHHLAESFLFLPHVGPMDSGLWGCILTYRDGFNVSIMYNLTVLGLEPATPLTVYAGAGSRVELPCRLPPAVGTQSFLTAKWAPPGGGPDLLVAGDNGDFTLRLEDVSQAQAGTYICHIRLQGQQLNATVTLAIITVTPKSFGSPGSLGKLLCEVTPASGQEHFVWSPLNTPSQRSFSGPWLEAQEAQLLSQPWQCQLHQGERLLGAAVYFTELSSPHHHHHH
The assay can be described thus: SPR Biacore T100 (orthologues at 37 C, human at 25 C). As for the experimental part:
(§1) Wild type fucosylated and afucosylated antibodies were compared for their ability to bind to recombinant human LAG-3 ECD with a C-terminal His6 (SEQ ID NO:51) using the Biacore™ T100 (GE Healthcare™). Protein A was immobilised on a CM5 chip by primary amine coupling. This surface was then used to capture the humanised antibodies. Recombinant human LAG-3 ECD-His6 was then passed over the captured antibodies at 32, 8, 2, 0.5 and 0.125 nM and regeneration was carried out using 50 mM NaOH. The binding curves were double referenced with buffer injection (i.e. 0 nM) and the data was fitted to the T100 analysis software using the 1:1 model. The run was carried out at 25° C., using HBS-EP as the running buffer.
(§2) Protein A was immobilised on a CM5 chip by primary amine coupling. This surface was then used to capture the humanised antibodies. In-house generated recombinant cynomolgus macaque and baboon LAG-3 ECD-His6 were then passed over the captured antibodies and regeneration was carried out using 50 mM NaOH. LAG-3 ECD-His6 was passed over at 16, 4, 1, 0.25 and 0.0625 nM. The binding curves were double referenced with buffer injection (i.e. 0 nM) and the data was fitted to the T100 analysis software using the 1:1 model. The run was carried out at 37° C. using HBS-EP as the running buffer.
On the technique in general: Surface plasmon resonance follows binding to a sensor surface in real time, without labels.

The target of assay [2] is T2, Recombinant baboon LAG-3 ECD-His6 (baboon, UniProt P18627 24-433 (human entry)).
T2 construct: In-house generated
T2 chain: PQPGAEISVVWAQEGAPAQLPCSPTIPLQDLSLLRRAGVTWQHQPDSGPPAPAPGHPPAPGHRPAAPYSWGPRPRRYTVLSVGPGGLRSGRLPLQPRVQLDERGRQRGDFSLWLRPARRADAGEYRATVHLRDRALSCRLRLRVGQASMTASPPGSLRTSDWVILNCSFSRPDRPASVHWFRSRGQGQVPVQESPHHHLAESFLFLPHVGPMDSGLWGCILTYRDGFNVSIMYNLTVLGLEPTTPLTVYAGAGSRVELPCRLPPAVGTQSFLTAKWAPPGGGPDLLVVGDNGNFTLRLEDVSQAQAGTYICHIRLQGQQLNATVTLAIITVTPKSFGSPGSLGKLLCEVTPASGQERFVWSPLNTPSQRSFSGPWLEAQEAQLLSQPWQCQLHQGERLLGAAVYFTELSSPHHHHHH
The description is as above. As for the experimental part:
as §1, §2

Assay [3] addresses T3, Human LAG-3 on cells (human LAG-3 expressing EL4 cells; activated human CD3+ T cells) (human, UniProt P18627 23-525).
T3 construct: whole, on cells; also called LAG-3 positive T cells
T3 sequence (looked up): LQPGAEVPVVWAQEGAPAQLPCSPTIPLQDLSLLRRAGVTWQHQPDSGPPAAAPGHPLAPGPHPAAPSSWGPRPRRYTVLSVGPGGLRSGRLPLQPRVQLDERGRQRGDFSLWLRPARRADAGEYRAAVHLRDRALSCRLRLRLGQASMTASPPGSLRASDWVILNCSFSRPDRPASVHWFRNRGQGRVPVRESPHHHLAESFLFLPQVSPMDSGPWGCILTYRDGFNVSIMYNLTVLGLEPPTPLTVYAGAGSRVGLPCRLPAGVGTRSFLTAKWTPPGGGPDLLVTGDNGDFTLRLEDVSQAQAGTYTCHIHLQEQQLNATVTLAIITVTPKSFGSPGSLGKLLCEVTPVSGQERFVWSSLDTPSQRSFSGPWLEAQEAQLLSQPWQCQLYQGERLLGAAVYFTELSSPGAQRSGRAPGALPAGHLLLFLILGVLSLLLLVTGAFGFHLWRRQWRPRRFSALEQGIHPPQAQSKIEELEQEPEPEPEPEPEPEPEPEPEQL
Briefly: flow cytometry (MFI), Alexa647-conjugated antibody titrated on human LAG-3 expressing EL4 cells; direct binding curve, half-maximal value labelled IC50 in the table under the graph; unit taken from the concentration axis. As for the experimental part:
Human LAG-3 expressing EL4 cells were incubated with either IMP731, H5L7 or H5L7BW Alexa647-conjugated antibodies at varying concentrations of up to 50 μg/ml for 30 minutes at room temperature. Cells were washed with FACS buffer (PBS+0.5% BSA) to remove unbound antibody.
EL4 cells and CD3⁺ T cells were analysed by FACS using a Beckman Coulter FC 500 flow cytometer. FACS raw data were analysed using CXP Analysis software (Beckman Coulter). The data was initially plotted on a forward-scatter versus side-scatter plot and the population of cells of interest were gated. This gated population was then plotted as a histogram displaying fluorescence intensity and the mean fluorescence intensity (MFI) calculated. MFI values were then plotted in GraphPad Prism 5 software to generate dose response curves.
For orientation: A flow cytometer gives signals particle by particle.

Here are results for three molecules from patent US20160017037A1 (GlaxoSmithKline, published 2016).

B1: H5L7BW (antibody, human IgG1, kappa)
heavy: not shown
light: DIQMTQSPSSLSASVGDRVTITCKSSQSLLNPSNQKNYLAWYQQKPGKAPKLLVYFASTRDSGVPSRFSGSGSGTDFTLTISSLQPEDFATYYCLQHFGTPPTFGQGTKLEIKRTVAAPSVFIFPPSDEQLKSGTASVVCLLNNFYPREAKVQWKVDNALQSGNSQESVTEQDSKDSTYSLSSTLTLSKADYEKHKVYACEVTHQGLSSPVTKSFNRGEC
modifications: afucosylated: no fucose on the core carbohydrate structure attached to Asn297
notes: Same plasmids as H5L7, expressed in the BioWa POTELLIGENT (FUT8 knock-out CHO) cell line; also called afucosylated antibody H5L7BW; afucosylated H5L7
The IC50 is the concentration at which inhibition is half-maximal. High values mean lower potency, low ones higher potency. In the case of B1, the “fold improvement in affinity against human recombinant LAG-3 ECD-His6” value (shortened to “fold improvement in affinity”) in assay [1] and in assay [2] was 10 fold in each case. The molecule also returned an IC50 in assay [3] of 0.0169 µg/mL.

B2: H5L7 (antibody, human IgG1, kappa)
heavy: not shown
light: DIQMTQSPSSLSASVGDRVTITCKSSQSLLNPSNQKNYLAWYQQKPGKAPKLLVYFASTRDSGVPSRFSGSGSGTDFTLTISSLQPEDFATYYCLQHFGTPPTFGQGTKLEIKRTVAAPSVFIFPPSDEQLKSGTASVVCLLNNFYPREAKVQWKVDNALQSGNSQESVTEQDSKDSTYSLSSTLTLSKADYEKHKVYACEVTHQGLSSPVTKSFNRGEC
notes: Humanised IgG1/kappa of A9H12 (IMP731); also called fucosylated H5L7; non-ADCC enhanced variant H5L7
Regarding B2, the “fold improvement in affinity” value in assay [1] and in assay [2] was 10 fold throughout. The molecule further displayed an IC50 in assay [3] of 0.0142 µg/mL.

B3: IMP731 (antibody, human IgG1, kappa)
heavy: not shown
light: DIVMTQSPSSLAVSVGQKVTMSCKSSQSLLNGSNQKNYLAWYQQKPGQSPKLLVYFASTRDSGVPDRFIGSGSGTDFTLTISSVQAEDLADYFCLQHFGTPPTFGGGTKLEIKRTVAAPSVFIFPPSDEQLKSGTASVVCLLNNFYPREAKVQWKVDNALQSGNSQESVTEQDSKDSTYSLSSTLTLSKADYEKHKVYACEVTHQGLSSPVTKSFNRGEC
notes: Chimeric (murine variable domains, human IgG1/kappa constant regions); also called A9H12; chimeric antibody IMP731
For B3, the “fold improvement in affinity” value in assay [1] and in assay [2] was about 100 fold in each case. The molecule further yielded an IC50 in assay [3] of 0.013 µg/mL.
